Here are results for two molecules from paper PMC3283998 (The Journal of Cell Biology, 2012).

Where no end group is shown, it is not given here.

In one assay the target is T1, Bub1(1–150) (human, UniProt O43683 1-150).
T1 sequence (looked up): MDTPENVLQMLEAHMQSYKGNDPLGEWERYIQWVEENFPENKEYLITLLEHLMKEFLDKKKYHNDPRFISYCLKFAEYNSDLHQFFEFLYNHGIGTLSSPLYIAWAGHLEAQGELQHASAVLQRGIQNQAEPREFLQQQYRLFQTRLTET
Put plainly: fluorescence polarisation.

A further assay deals with BubR1(1–204) (human, UniProt O60566 1-204). The assay can be described thus: fluorescence polarisation.
Chain of BubR1(1–204) (O60566 1-204): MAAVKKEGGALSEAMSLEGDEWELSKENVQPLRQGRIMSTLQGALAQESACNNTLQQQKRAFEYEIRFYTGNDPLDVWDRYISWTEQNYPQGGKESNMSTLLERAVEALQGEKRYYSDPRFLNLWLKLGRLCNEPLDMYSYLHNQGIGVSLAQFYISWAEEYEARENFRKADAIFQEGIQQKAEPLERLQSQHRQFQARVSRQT

In general, Kd refers to the free concentration of one partner at which half of the binding sites on the other are occupied at equilibrium, for simple one-to-one binding. High values mean weaker binding, low ones tighter binding. In the assay with Bub1(1–150), STKIDTTSFLANLKLHT (peptide, UniProt Q8NG31-2 174-190, looked up, also: fluorescein (5-FAM) label, position not given here) [Fluorescein (5-FAM)-labeled Knl1(174–190) peptide] returned a Kd of about 35 µM.

In the case of ENKIDFNDFIKRLKTGK (peptide, UniProt Q8NG31-2 210-226, looked up, also: 5-FAM label, position not given here) [5-FAM–labeled synthetic peptide Knl1(210–226)], binding with BubR1(1–204) was characterised by a dissociation constant (Kd) of 0.45 µM.
